Results taken from publication PMC5719408, “Multivalent cross-linking of actin filaments and microtubules through the microtubule-associated protein Tau” (Nature Communications, 2017).

Biological target: NBD-conjugated actin from α-skeletal muscle (F-actin) (UniProt P68135)
Experiment: NBD-F-actin fluorescence titration
Conditions: reference: unphosphorylated Tau(254–284) peptide; sites S262

binding against the reference: weaker
Substance: Tau (2N4R) 254-284 (from UniProt P10636-8) pS262 Tau(254–284) peptide
